Three molecules from patent publication US20130251724A1 (GlaxoSmithKline, published 2013) can be followed below.

Where “and” joins values, the source holds several entries; their conditions need not be identical. Equal entries are not always repeated. Where two headings read alike, the source gives them in different places.

For experiment [1], the target named is T1, Human OSM (human, UniProt P13725 26-221).
T1 construct: Recombinant human OSM; also called hOSM; human Oncostatin M
T1 sequence: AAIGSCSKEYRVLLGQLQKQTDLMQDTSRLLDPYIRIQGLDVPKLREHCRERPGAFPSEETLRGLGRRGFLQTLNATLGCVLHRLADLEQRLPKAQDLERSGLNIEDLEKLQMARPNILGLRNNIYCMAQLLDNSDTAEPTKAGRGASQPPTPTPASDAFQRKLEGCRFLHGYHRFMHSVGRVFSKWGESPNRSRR
The experiment is described as follows: BIAcore kinetics.

In experiment [2] the target is T2, Cynomolgus OSM (cynomolgus, UniProt A0A2K5VPC6 26-221).
T2 construct: also called Cyno OSM; cynomolgus macaque OSM
T2 sequence: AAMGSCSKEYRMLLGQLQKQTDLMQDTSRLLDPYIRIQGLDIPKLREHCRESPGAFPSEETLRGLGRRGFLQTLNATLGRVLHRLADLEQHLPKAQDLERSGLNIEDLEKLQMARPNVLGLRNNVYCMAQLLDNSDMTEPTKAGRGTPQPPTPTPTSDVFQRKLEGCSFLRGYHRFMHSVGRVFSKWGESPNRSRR
Briefly: BIAcore kinetics.

In experiment [3] the target is T1, Human OSM. Briefly: cell-based or functional assay.
The target in experiment [4] is T2, Cynomolgus OSM. Briefly: cell-based or functional assay.
Experiment [5] has as its target T1, Human OSM. The experiment is described as follows: human gp130 ELISA, inhibition of OSM binding to gp130.
The target in experiment [6] is T2, Cynomolgus OSM. The experiment is described as above.
Experiment [7] concerns the target T1, Human OSM. The experiment is described as follows: cell-based or functional assay. The source holds these as a separate data set.
Experiment [8] addresses T1, Human OSM. The experiment is described as follows: human gp130 ELISA, inhibition of OSM binding to gp130. This is another data set of the same source.
For experiment [9], the target named is T2, Cynomolgus OSM. The experiment is described as above. This is another data set of the same source.
Experiment [10] deals with T1, Human OSM. Briefly: cell-based or functional assay. The source holds these as a separate data set.
Experiment [11] concerns the target T2, Cynomolgus OSM. The experiment is described as follows: cell-based or functional assay. This is another data set of the same source.
The target in experiment [12] is T3, Endogenous human OSM (neutrophil-derived) (human, UniProt P13725 26-221, limits assumed).
T3 construct: Native OSM generated from GM-CSF stimulation of healthy human neutrophils; also called native OSM; endogenous OSM
T3 sequence: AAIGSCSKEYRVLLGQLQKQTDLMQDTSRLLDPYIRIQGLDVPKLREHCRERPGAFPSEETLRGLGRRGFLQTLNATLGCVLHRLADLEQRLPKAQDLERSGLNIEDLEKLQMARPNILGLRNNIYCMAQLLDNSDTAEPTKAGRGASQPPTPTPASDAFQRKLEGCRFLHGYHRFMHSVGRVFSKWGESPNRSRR
The experiment is described as follows: gp130 ELISA with endogenous neutrophil-derived human OSM.

Experiment [13] addresses T1, Human OSM. Briefly: BIAcore kinetics. This is another data set of the same source.
For experiment [14], the target named is T2, Cynomolgus OSM. The experiment is described as follows: BIAcore kinetics. The source holds these as a separate data set.
Experiment [15] deals with T1, Human OSM. The experiment is described as follows: direct ELISA, human OSM coated at 1 µg/ml, detection with anti-human IgG. The method, then: Both the 10G8 and 9G2 chimaeras successfully bound to human OSM, to a greater extent than 15E10chimera (15E10c) (FIG. 11). This was a direct ELISA where human OSM was coated at 1 μg/ml and bound antibodies detected using anti-human IgG.

The target in experiment [16] is T1, Human OSM. Briefly: cell-based or functional assay. The source holds these as a separate data set.
The target of experiment [17] is T2, Cynomolgus OSM. The experiment is described as follows: cell-based or functional assay. The source holds these as a separate data set.
In experiment [18] the target is Marmoset OSM (marmoset). The experiment is described as follows: cell-based or functional assay.
Experiment [19] addresses T3, Endogenous human OSM …. Briefly: gp130 ELISA with endogenous neutrophil-derived human OSM. This is another data set of the same source.
Experiment [20] deals with T1, Human OSM. Briefly: BIAcore kinetics, purified antibody.
Experiment [21] deals with T1, Human OSM. Briefly: BIAcore kinetics, purified antibody. This is another data set of the same source.
The target of experiment [22] is T2, Cynomolgus OSM. The experiment is described as follows: BIAcore kinetics, purified antibody.
The target in experiment [23] is T1, Human OSM. Briefly: cell-based or functional assay. The source holds these as a separate data set.
Experiment [24] concerns the target T2, Cynomolgus OSM. The experiment is described as follows: cell-based or functional assay. This is another data set of the same source.
Experiment [25] deals with T1, Human OSM. The experiment is described as follows: BIAcore kinetics, transfection supernatant.
For experiment [26], the target named is T1, Human OSM. The experiment is described as follows: BIAcore kinetics, purified antibody. The source holds these as a separate data set.
In experiment [27] the target is T2, Cynomolgus OSM. The experiment is described as follows: BIAcore kinetics, purified antibody. The source holds these as a separate data set.

B1: 9G2, murine anti-OSM mAb (antibody, V domains shown)
VH: EVQLVESGGGLVEPGGSLKLSCAASGFTFSNYAMSWVRQTPEKRLEWVATISDGGSFTYYLDNVKGRFTISRDNAKNNLYLQMSHLKSDDTAMYYCARDVGHTTFWYFDVWGTGTTVTVSS
VL: DIVLTQSPVFLVISLGQRATISCRASKSVSASGYNFMHWYQQKPGQPPKVLIKYASNLESGVPARFSGSGSGTDFTLNIHPVEEEDAVTYYCQHSREFPFTFGGGTKLEIK
notes: Mouse hybridoma mAb; also called 9G2/C1; 9G2.C1
Turning to B1, the Kd in experiment [1] is 1600 pM; in [2], 775 pM; in experiment [13] it was 1600 pM; in experiment [14] it was 750 pM. The koff worked out at 0.000121 s⁻¹ in [1] and 4.76e-05 s⁻¹ in experiment [2]. Further, the association rate constant (kon) in [1] is 75200 M⁻¹ s⁻¹; in experiment [2], 61400 M⁻¹ s⁻¹. Further, the “KB cell neutralisation assay, mean IC50” value in experiment [3] is 0.018 µg/ml and 120 pM; in [4], 100 pM and 0.015 µg/ml; in experiment [10], 0.163 µg/ml and 1.1 nM; in experiment [11] it was 0.046 µg/ml and 307 pM. In addition, the IC50 in [5] is 0.16 µg/mL and 1.1 nM; in experiment [6], 0.03 µg/mL and 0.2 nM; in experiment [8] it was 0.038 µg/mL and 0.253 nM; in experiment [9], 0.049 µg/mL and 0.327 nM; in experiment [12] it was 0.02 µg/mL and 0.133 nM. Moreover, the “IC50 (read off the curve); IL-6 release from KB cells stimulated with human OSM, 25% human AB serum” value in [7] is roughly 0.03 µg/mL.

B2: 10G8 chimaera (antibody, human IgG1, kappa, V domains shown)
VH: EMQLVESGEGLVEPGGSLKLSCAASGFTFSNYAMSWVRQTPEKSLEWVATISDGGSFTYYLDNVRGRFTISRDNAKNNLYLQMSHLKSDDTAMYYCARDVGHTTFWYFDVWGSGTLVTVSS
VL: DIVLTQSPVFLVVSLGQRATISCRASKSVSAAGYNFMHWYQQKPGQPPKVLIKYASNLESGVPARFSGSGSGTDFTLNIHPVEEEDAVTYYCLHSREFPFTFGGGTNLEIKR
notes: Mouse V regions on human gamma 1 wild type and human kappa constant regions; the entries called VH/VL domain (chimera) are full chains; also called 10G8 chimera; 10G8 Chimæra
In the case of B2, the Kd amounted to 654 pM in experiment [1]; 480 pM in experiment [2]; 407 pM in [20]; 184 pM in experiment [21]; 266 pM in experiment [22]; 407 pM in experiment [25]. Besides, the dissociation constant Kd amounted to 518 pM in experiment [26] and 394 pM in experiment [27]. Besides, the koff turned out to be 0.000152 s⁻¹ in [1]; 0.000114 s⁻¹ in experiment [2]; 0.000105 s⁻¹ in [20]; 7.87e-05 s⁻¹ in [21]; 6.63e-05 s⁻¹ in experiment [22]; 0.000103 s⁻¹ in [25]. Besides, the koff is 0.000125 s⁻¹ in experiment [26] and 9.95e-05 s⁻¹ in experiment [27]. Besides, the kon in experiment [1] was 233000 M⁻¹ s⁻¹; in experiment [2], 237000 M⁻¹ s⁻¹; in experiment [20] it was 257000 M⁻¹ s⁻¹; in experiment [21] it was 427000 M⁻¹ s⁻¹; in experiment [22], 250000 M⁻¹ s⁻¹; in [25], 252000 M⁻¹ s⁻¹. Also, the figures for the on-rate (kon) in experiment [26] and in experiment [27] were 241000 M⁻¹ s⁻¹ and 253000 M⁻¹ s⁻¹, respectively. Moreover, in [15], the concentration for a half-maximal effect (EC50 (read off the curve)) was roughly 200 pM. Moreover, the “KB cell neutralisation assay, mean IC50” value in experiment [16] is 0.0052 µg/ml and 35 pM; in [17], 0.0011 µg/ml and 7 pM; in [18], 0.0271 µg/ml and 181 pM; in [23] it was 0.022 µg/ml and 144 pM; in [24], 0.008 µg/ml and 100 pM; in [10], 0.021 µg/ml and 140 pM. In experiment [11], the “KB cell neutralisation assay, mean IC50” value is 0.008 µg/ml and 53 pM. Also, the half-maximal inhibitory concentration (IC50) in experiment [19] was 0.0091 µg/mL and 0.061 nM; in experiment [8], 0.037 µg/mL and 0.247 nM; in experiment [9], 0.016 µg/mL and 0.107 nM; in [12] it was 0.009 µg/mL and 0.06 nM.

B3: 9G2 chimaera (antibody, human IgG1, kappa, V domains shown)
VH: EVQLVESGGGLVEPGGSLKLSCAASGFTFSNYAMSWVRQTPEKRLEWVATISDGGSFTYYLDNVKGRFTISRDNAKNNLYLQMSHLKSDDTAMYYCARDVGHTTFWYFDVWGTGTLVTVSS
VL: DIVLTQSPVFLVISLGQRATISCRASKSVSASGYNFMHWYQQKPGQPPKVLIKYASNLESGVPARFSGSGSGTDFTLNIHPVEEEDAVTYYCQHSREFPFTFGGGTKLEIKR
notes: Mouse V regions on human gamma 1 wild type and human kappa constant regions; also called 9G2 chimera
For the molecule B3, the Kd in experiment [1] was 1330 pM; in experiment [2] it was 787 pM. For the same molecule, the figures for the koff in experiment [1] and in experiment [2] were 0.000168 s⁻¹ and 9.99e-05 s⁻¹, respectively. Further, the on-rate (kon) in experiment [1] was found to be 126000 M⁻¹ s⁻¹; in experiment [2], 127000 M⁻¹ s⁻¹. The concentration for a half-maximal effect (EC50 (read off the curve)) in experiment [15] was roughly 400 pM. Further, the IC50 in [8] was 0.078 µg/mL and 0.52 nM; in [9] it was 0.028 µg/mL and 0.187 nM; in [12] it was 0.017 µg/mL and 0.113 nM. Besides, the “KB cell neutralisation assay, mean IC50” value in [10] was 0.231 µg/ml and 1.5 nM; in experiment [11] it was 0.031 µg/ml and 207 pM.
